# Paper doi:10.1101/2021.04.26.441501 (bioRxiv, 2021)
# B1: SARS2-38 (murine IgG1 mAb) (antibody, V domains shown)
# VH: QVQLKESGPGLVAPSQSLSITCTVSGFSLTRYGVHWVRQPPGKGLEWLGVIWADGSTYYNSALMSRLSISKDNSKSQVFLNMNSLQTDDTAKYYCARDGRGYDDYWGQGTTLTVSS
# VL: QIVLTQSPAIMSASPGEKVTMTCSASSTVSFIYWYQQKPGSSPRLLIYDTSNPASGVPVRFSGSGCGTSYYLTISRMEAEDAATYYCQQWNTYPLTFGAGTKLELK
# Target: SARS-CoV-2 RBD (residues 319-514) with C-terminal hexahistidine tag (Severe acute respiratory syndrome …, UniProt P0DTC2)
# Assay: ELISA
binder,measurement,value
B1,binding result,binds
